In this assay the target is Envelope glycoprotein gp120Bal (HIV-1 isolate Bal). Nature of the assay: ELISA.

The EC50 is the concentration that produces a half-maximal response. A high value points to weaker potency. With “macaque germline HV control scFv (macaque germline b12 HV recombined with human mature b12 D(J)-segments and VL)”, the EC50 turned out to be 2500 nM.

The substance “human germline HV control scFv (human germline b12 HV recombined with human mature b12 D(J)-segments and VL)” came in with an EC50 of 24.1 nM.

Values taken from paper PMC3167946.
